In article PMC4728560 (Scientific Reports, 2016):
“Also recorded” adds a separate entry of the source.

Legend:
[1] = system: Bcl-xL inhibition of cBid/Bax; experiment: In vitro reconstitution liposome permeabilization, cBid/Bax with Bcl-xL; format: biochemical; conditions: ANTS/DPX liposomes, 100 nM Bax, 20 nM cBid, pre-incubation pH 9, 45 min, 37 °C, 5 h, pH 7
From the text: (§1) This purified assay system measures direct interactions in which full-length untagged Bcl-xL inhibits permeabilization by binding full-length caspase 8 cleaved Bid (cBid) and/or full-length untagged Bax, thereby preventing Bax oligomerization in membranes. […] In these assays liposome permeabilization by activated Bax releases the entrapped fluorophore/quencher pair 8-aminonaphthalene-1,3,6-trisulfonic acid (ANTS)/p-xylene-bispyridinium (DPX), resulting in a measurable increase of fluorescence.
(§2) (A–E) in vitro reconstitution assay on liposome permeabilization. […] The treated Bcl-xL was then added to reactions containing ANTS-DPX liposomes, 100 nM Bax and 20 nM of either cBid (A,B) or cBidmt1(C,D) at pH 7. Liposome permeabilization was quantified by fluorescence after 5h incubation at 37 °C where 100% release was defined as the fluorescence change due to lipid solubilization with 1% Triton X-100. […] Error bars, std. dev. n = 3. […] Cyto c extra-mito: in the supernatant, analysed by Western blot. […]
(§3) Figure 10 A,B) or cBid mt1 (Supplementary Figure 10 C,D) at pH 7 to quantify the activity of Bcl-xL inhibition of liposome permeablization. […]
(§4) then added to reactions containing ANTS-DPX liposomes, 100nM Bax and 20nM of either c Bid (A, C) or cBid mt1(B, D) at pH 7 and liposome permeabilization was quantified by fluorescence […]

[2] = biological target: T1, Bcl-xL (Homo sapiens, UniProt Q07817, DEL27-82); experiment: Heterocomplex formation with Bcl-xL (native MS, SEC-MALS, gel filtration); format: binding; conditions: native MS: Bcl-xL(Δ27-81ΔCT), equimolar 100 μM, 30 °C, checked at 5 μM (for TCTP-R21A)
T1 construct: one containing the fragment 1-26, and the other the fragment 81-209; 6His (N, cleaved yes); made in house; host or cells: Escherichia coli BL21 (DE3) pRARE2
Description: When not specified, proteins tested for binding experiments were mixed at 100 μM, dialyzed against 10 mM CHES pH 9, 50 mM NaCl, 1 mM DTT or TCEP, depending on the analysis, and heated overnight at 30 °C.
For binding experiments, 100 to 200PL of protein mixture were loaded on a size exclusion chromatography (S200, GE Healthcare) column, while elution profiles were measured by UV absorption at 280 nm.
SEC-MALS experiments were performed on a multi-angle light scattering detector (miniDAWN TREOS, Wyatt Technologies) coupled in-line with SEC and an interferometric refractometer (Optilab T-rEX, Wyatt Technologies). See Supplementary Information for full details.
Prior to any mass spectrometry experiment, protein buffer was exchanged twice against a 50 mM ammonium acetate (NH4Ac) solution at pH 9.0 using microcentrifuge gel filtration columns (Zeba 0.5 ml, Thermo Scientific, Rockford, IL). Protein concentration was determined spectrophotometrically. […]
Supplementary Table 1. Measured molecular weights in denaturing conditions Sample Theoretical molecular Measured molecular Associated mass (Da) mass (Da) species […]
Gel filtration. For binding experiments, 100 to 200PL of protein mixture were loaded on a size exclusion chromatography (S200, GE Healthcare) column, while elution profiles were measured by UV absorption at 280nm. […]

[3] = system: Bcl-xL; experiment: In cellulo BRET between Luciferase-fused TCTP and YFP-fused Bcl-xL; format: cell-based; conditions: MCF-7 cells; donor Luciferase-fused TCTP, acceptor YFP-fused Bcl-xL
From the text: See Supplementary Information for full details.
Twenty-four hours later, cells
Protein expression and purification

[4] = system: Bax mediated cytochrome c release, Bcl-xL; experiment: Cytochrome c release from purified mitochondria by tBid and Bax in the presence of Bcl-xL; format: biochemical; conditions: mouse liver mitochondria; 5 nM tBid, 50 nM Bax, 300 nM Bcl-xL; 15 min, 30 °C; Western blot
Description: as §2, with “3. To compare between the TCTP treated groups and the Control group statistically, two-way ANOVA test was performed for (A–D) and one-way ANOVA test was performed for (E). […] Colored asterisks above each data point indicate the statistical significance (*p < 0.05; **p < 0.01, no asterisks if p ≥ 0.05). A complete statistical analysis is provided in Supplementary Table 2–4.” for “3.”
to highlight the pre-incubation), pH 9, 30 C° before being added to the mitochondria at their final concentrations. […] Cytochrome c was detected in the mitochondrial fraction (Cyto c intra-mito) or in the supernatant (Cyto c extra-mito) by Western blot analysis. […]
Cytochrome c release assay. […] Mitochondrial pellets and the corresponding supernatant fractions were subjected to SDS-polyacrylamide gel electrophoresis and analyzed by Western blotting for cytochrome c.

[5] = system: Bcl-xL inhibition of cBidmt1/Bax; experiment: In vitro reconstitution liposome permeabilization, cBidmt1/Bax with Bcl-xL; format: biochemical; conditions: ANTS/DPX liposomes, 100 nM Bax, 20 nM cBidmt1, pre-incubation pH 9, 45 min, 37 °C, 5 h, pH 7
From the text: as §1, §2, §3, §4

T1 sequence (Q07817 with tags, fused parts or gaps DEL27-82): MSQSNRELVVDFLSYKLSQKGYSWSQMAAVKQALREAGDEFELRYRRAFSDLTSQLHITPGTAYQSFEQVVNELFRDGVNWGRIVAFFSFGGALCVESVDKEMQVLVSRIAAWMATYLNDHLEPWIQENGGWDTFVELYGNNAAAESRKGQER

BRET signals with Bcl-xL [3]: lack of binding
B1: TCTP R21A: full-length TCTP protein bearing the mutation R21A (protein)
chain: MIIYRDLISHDEMFSDIYKIAEIADGLCLEVEGKMVSRTEGNIDDSLIGGNASAEGPEGEGTESTVITGVDIVMNHHLQETSFTKEAYKKYIKDYMKSIKGKLEEQRPERVKPFMTGAAEQIKHILANFKNYQFFIGENMNPDGMVALLDYREDGVTPYMIFFKDGLEMEKC
effect on Bcl-xL inhibition of cBid/Bax-mediated liposome permeabilization [1]: no effect on Bcl-xL activity | complex formation with Bcl-xL [2]: no peak; also recorded: no complex formation | potentiation of Bcl-xL (cytochrome c release) [4]: do not potentiate Bcl-xL | effect on Bcl-xL inhibition of cBidmt1/Bax-mediated liposome permeabilization [5]: no effect on Bcl-xL activity
